Laboratory results from the supplement of paper PMC6755084.

B1: F1*; the commonest letter at each place (parent)
chain: GAGACCGCAACTGAAAAGTTGTTATCACTTGTCGTAAGACACTTTGGATGGGTTGAAGTTCTGCACGTAGAAGCAAAAGGC

Variants of: B1
Assay: fraction ligated after 30 min (ligated reads / total reads); higher = more ligase activity
Conditions: with F1*sub RNA substrate (template-directed ligation), 42 °C
Procedure, shortened: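 Oligo-pool templates underwent PCR amplification, T7 transcription and gel purification to yield ribozyme variants. Gel-separated ligated and unligated bands were converted to complementary DNA with barcoded primers and sequenced on a MiSeq, keeping core bases of quality ≥20. The ratio of ligated reads to total reads gave the fraction ligated for every variant.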

Going from GAGACCGCAACTGAAAAGTTGTTATCACTTGTCGTAAGACACTTTGGACCGGTTGAAGTTCTGCACGTAGAAGCAAAAGGC to GAGACCGCAACTGAAAAGTTGTTATCACTTGTCGTAAGACACTTTGGATCGGTTAAAGTTCTGCACGTAGAAGCAAAAGGC, the fraction ligated falls from 0.455 to 0.112.

First: GAGACCGCAACTGAAAAGTTGTTATCACTTGTCGTAAGACACTTTGGATCGGTTTAAGTTCTGCACGTAGAAGCAAAAGGC
Second: GAGACCGCAACTGAAAAGTTGTTATCACTTGTCGTAAGACACTTTGGATCGGTTCAAGTTCTGCACGTAGAAGCAAAAGGC
The fraction ligated of the first is higher: 0.0259 for the first, 0.0221 for the second.

Compared with GAGACCGCAACTGAAAAGTTGTTATCACTTGTCGTAAGACACTTTGGACGGGTTCAAGTTCTGCACGTAGAAGCAAAAGGC, GAGACCGCAACTGAAAAGTTGTTATCACTTGTCGTAAGACACTTTGGACGGGTTTAAGTTCTGCACGTAGAAGCAAAAGGC is higher in fraction ligated: 0.0675 for the first, 0.091 for the second.

Going from GAGACCGCAACTGAAAAGTTGTTATCACTTGTCGTAAGACACTTTGGACGGGTTAAAGTTCTGCACGTAGAAGCAAAAGGC to GAGACCGCAACTGAAAAGTTGTTATCACTTGTCGTAAGACACTTTGGAGGGGTTTAAGTTCTGCACGTAGAAGCAAAAGGC, the fraction ligated falls from 0.335 to 0.243.

First: GAGACCGCAACTGAAAAGTTGTTATCACTTGTCGTAAGACACTTTGGAGGGGTTAAAGTTCTGCACGTAGAAGCAAAAGGC
Second: GAGACCGCAACTGAAAAGTTGTTATCACTTGTCGTAAGACACTTTGGAGGGGTTCAAGTTCTGCACGTAGAAGCAAAAGGC
The fraction ligated of the first is higher: 0.688 for the first, 0.136 for the second.

First: GAGACCGCAACTGAAAAGTTGTTATCACTTGTCGTAAGACACTTTGGACGGGTTGCAGTTCTGCACGTAGAAGCAAAAGGC
Second: GAGACCGCAACTGAAAAGTTGTTATCACTTGTCGTAAGACACTTTGGACGGGTTGTAGTTCTGCACGTAGAAGCAAAAGGC
The fraction ligated of the first is lower: 0.0481 for the first, 0.0726 for the second.

First: GAGACCGCAACTGAAAAGTTGTTATCACTTGTCGTAAGACACTTTGGACGGGTTGGAGTTCTGCACGTAGAAGCAAAAGGC
Second: GAGACCGCAACTGAAAAGTTGTTATCACTTGTCGTAAGACACTTTGGAGGGGTTGAAGTTCTGCACGTAGAAGCAAAAGGC
The fraction ligated of the first is lower: 0.0622 for the first, 0.778 for the second.

Going from GAGACCGCAACTGAAAAGTTGTTATCACTTGTCGTAAGACACTTTGGACGGGTTGAAGTTCTGCACGTAGAAGCAAAAGGC to GAGACCGCAACTGAAAAGTTGTTATCACTTGTCGTAAGACACTTTGGAAGGGTTGAAGTTCTGCACGTAGAAGCAAAAGGC, the fraction ligated rises from 0.731 to 0.777.

First: GAGACCGCAACTGAAAAGTTGTTATCACTTGTCGTAAGACACTTTGGATCGGTTGTAGTTCTGCACGTAGAAGCAAAAGGC
Second: GAGACCGCAACTGAAAAGTTGTTATCACTTGTCGTAAGACACTTTGGATCGGTTGCAGTTCTGCACGTAGAAGCAAAAGGC
The fraction ligated of the first is higher: 0.0147 for the first, 0.00754 for the second.

Compared with GAGACCGCAACTGAAAAGTTGTTATCACTTGTCGTAAGACACTTTGGATCGGTTGGAGTTCTGCACGTAGAAGCAAAAGGC, GAGACCGCAACTGAAAAGTTGTTATCACTTGTCGTAAGACACTTTGGAAGGGTTGTAGTTCTGCACGTAGAAGCAAAAGGC is higher in fraction ligated: 0.0166 for the first, 0.209 for the second.

Compared with GAGACCGCAACTGAAAAGTTGTTATCACTTGTCGTAAGACACTTTGGAAGGGTTGGAGTTCTGCACGTAGAAGCAAAAGGC, GAGACCGCAACTGAAAAGTTGTTATCACTTGTCGTAAGACACTTTGGAAGGGTTGCAGTTCTGCACGTAGAAGCAAAAGGC is lower in fraction ligated: 0.116 for the first, 0.102 for the second.

First: GAGACCGCAACTGAAAAGTTGTTATCACTTGTCGTAAGACACTTTGGATCGGTTGAAGTTCTGCACGTAGAAGCAAAAGGC
Second: GAGACCGCAACTGAAAAGTTGTTATCACTTGTCGTAAGACACTTTGGATAGGTTGAAGTTCTGCACGTAGAAGCAAAAGGC
The fraction ligated of the first is lower: 0.424 for the first, 0.589 for the second.

Compared with GAGACCGCAACTGAAAAGTTGTTATCACTTGTCGTAAGACACTTTGGATTGGTTGAAGTTCTGCACGTAGAAGCAAAAGGC, GAGACCGCAACTGAAAAGTTGTTATCACTTGTCGTAAGACACTTTGGATAGGTTGCAGTTCTGCACGTAGAAGCAAAAGGC is lower in fraction ligated: 0.743 for the first, 0.0252 for the second.

First: GAGACCGCAACTGAAAAGTTGTTATCACTTGTCGTAAGACACTTTGGATAGGTTGTAGTTCTGCACGTAGAAGCAAAAGGC
Second: GAGACCGCAACTGAAAAGTTGTTATCACTTGTCGTAAGACACTTTGGATAGGTTGGAGTTCTGCACGTAGAAGCAAAAGGC
The fraction ligated of the first is higher: 0.0351 for the first, 0.0277 for the second.

Compared with GAGACCGCAACTGAAAAGTTGTTATCACTTGTCGTAAGACACTTTGGAGGGGTTGCAGTTCTGCACGTAGAAGCAAAAGGC, GAGACCGCAACTGAAAAGTTGTTATCACTTGTCGTAAGACACTTTGGAGGGGTTGGAGTTCTGCACGTAGAAGCAAAAGGC is lower in fraction ligated: 0.109 for the first, 0.0888 for the second.

Compared with GAGACCGCAACTGAAAAGTTGTTATCACTTGTCGTAAGACACTTTGGAGGGGTTGTAGTTCTGCACGTAGAAGCAAAAGGC, GAGACCGCAACTGAAAAGTTGTTATCACTTGTCGTAAGACACTTTGGAATGGTTGAAGTTCTGCACGTAGAAGCAAAAGGC is higher in fraction ligated: 0.191 for the first, 0.769 for the second.

First: GAGACCGCAACTGAAAAGTTGTTATCACTTGTCGTAAGACACTTTGGAAAGGTTGAAGTTCTGCACGTAGAAGCAAAAGGC
Second: GAGACCGCAACTGAAAAGTTGTTATCACTTGTCGTAAGACACTTTGGAACGGTTGAAGTTCTGCACGTAGAAGCAAAAGGC
The fraction ligated of the first is lower: 0.281 for the first, 0.502 for the second.
